Source: article PMC3552960, “Constitutively Active CCR5 Chemokine Receptors Differ in Mediating HIV Envelope-dependent Fusion” (PLoS ONE, 2013)

Experiments:
Test in all cases: radioligand binding
Conditions in all cases: one partner purified
[1] = molecular target: T1, wild type human CCR5 chemokine receptor (human, UniProt P51681 1-352)
T1 construct: source: HOS-CD4-Luc, transiently transfected, on cells (fusion)

[2] = molecular target: T2, CCR5 Thr^2.56(82)Pro mutant receptor (human, UniProt P51681 1-352, Thr^2.56(82)Pro)
T2 construct: also called T^2.69(82)P; source: HOS-CD4-Luc, transiently transfected, on cells (fusion)
T2 sequence: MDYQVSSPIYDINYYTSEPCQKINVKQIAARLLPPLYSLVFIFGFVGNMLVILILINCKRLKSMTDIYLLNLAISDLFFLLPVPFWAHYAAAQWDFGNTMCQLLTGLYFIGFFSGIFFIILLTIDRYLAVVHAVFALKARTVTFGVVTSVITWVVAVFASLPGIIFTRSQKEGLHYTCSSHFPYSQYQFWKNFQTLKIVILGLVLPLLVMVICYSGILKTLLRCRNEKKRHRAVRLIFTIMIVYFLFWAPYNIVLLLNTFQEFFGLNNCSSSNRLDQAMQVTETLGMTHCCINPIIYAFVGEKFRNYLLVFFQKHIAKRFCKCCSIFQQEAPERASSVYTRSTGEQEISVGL

[3] = molecular target: T3, CCR5 Thr^2.56(82)Lys/Arg^6.32(225)Gln double-mutant receptor (human, UniProt P51681 1-352, Thr^2.56(82)Lys | Arg^6.32(225)Gln)
T3 construct: also called T^2.56(82)K/R^6.32(225)Q; T^2.69(82)K/R^6.32(225)Q; source: HOS-CD4-Luc, transiently transfected, on cells (fusion)
T3 sequence: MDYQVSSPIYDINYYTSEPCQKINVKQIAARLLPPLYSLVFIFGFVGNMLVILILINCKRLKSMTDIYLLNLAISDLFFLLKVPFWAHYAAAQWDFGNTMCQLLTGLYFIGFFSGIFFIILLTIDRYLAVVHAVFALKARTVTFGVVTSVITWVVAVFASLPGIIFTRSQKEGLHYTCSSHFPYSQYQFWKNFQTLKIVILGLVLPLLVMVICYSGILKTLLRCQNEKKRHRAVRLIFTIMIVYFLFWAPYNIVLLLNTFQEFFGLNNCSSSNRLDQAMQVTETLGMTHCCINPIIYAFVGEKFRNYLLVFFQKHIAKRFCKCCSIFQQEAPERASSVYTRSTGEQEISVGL

[4] = molecular target: T4, CCR5 Thr^2.56(82)Pro/Arg^6.32(225)Gln double-mutant receptor (human, UniProt P51681 1-352, Thr^2.56(82)Pro | Arg^6.32(225)Gln)
T4 construct: also called T^2.56(82)P/R^6.32(225)Q; T^2.69(82)P/R^6.32(225)Q; source: HOS-CD4-Luc, transiently transfected, on cells (fusion)
T4 sequence: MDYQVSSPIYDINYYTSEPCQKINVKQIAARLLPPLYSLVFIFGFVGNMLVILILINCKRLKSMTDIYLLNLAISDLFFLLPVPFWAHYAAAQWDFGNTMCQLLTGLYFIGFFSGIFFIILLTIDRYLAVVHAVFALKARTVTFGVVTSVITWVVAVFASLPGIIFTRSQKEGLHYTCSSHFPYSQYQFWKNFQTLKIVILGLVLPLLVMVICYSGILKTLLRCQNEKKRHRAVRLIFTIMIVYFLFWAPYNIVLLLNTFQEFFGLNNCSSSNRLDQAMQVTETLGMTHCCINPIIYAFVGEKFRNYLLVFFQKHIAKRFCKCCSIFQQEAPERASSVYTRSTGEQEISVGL

B1: macrophage inflammatory protein 1β (MIP-1β, CCL4), recombinant human, unlabelled (ligand)
chain: APMGSDPPTACCFSYTARKLPRNFVVDYYETSSLCSQPAVVFQTKRSKQVCADPSESWVQEYVYDLELN
notes: also called unlabelled MIP-1β; source: bought: Peprotec (Rocky Hill, NJ)
Work on B1 yielded an IC50 [1] of 32.6 nM, an IC50 [2] of 31.9 nM and an IC50 [3] of 20.7 nM. For the same binder, the IC50 [4] was 30.6 nM.
